Data: paper PMC8863222

Target: recombinant equine Keap1, GST-tagged, biotinylated (equine) (UniProt F6VZG9)
Assay: BLI; biotinylated Keap1 (65 μg/ml) loaded on streptavidin-coated biosensors; various concentrations of Rev or Nrf2 in PBST (PBS, 0.1 mg/ml BSA, 0.002% Tween 20, pH 7.2); room temperature; Octet Red

Row | Substance | Kd
1 | recombinant EIAV Rev, MBP-tagged (natural protein) | 494 nM
2 | recombinant equine Nrf2, His-tagged (natural protein) | 400 nM
